Where a chain is given by its changes, count along the chain named. Numbers in names are those of the source. Values belong to the binder of their own block, whether it stands above or below them.
Assays:
[1] = target: membrane LIGHT without residues 81-84 (EL4-NC-LIGHT cells) (human, UniProt O43557 1-240); test: cell-based or functional assay
[2] = target: T1, human LIGHT (TNFSF14), full length, membrane-bound (214E allele) (human, UniProt O43557 1-240); test: flow cytometry, EL4-LIGHT cells
T1 construct: also called membrane LIGHT; human membrane LIGHT
T1 sequence (O43557 whole entry K214E): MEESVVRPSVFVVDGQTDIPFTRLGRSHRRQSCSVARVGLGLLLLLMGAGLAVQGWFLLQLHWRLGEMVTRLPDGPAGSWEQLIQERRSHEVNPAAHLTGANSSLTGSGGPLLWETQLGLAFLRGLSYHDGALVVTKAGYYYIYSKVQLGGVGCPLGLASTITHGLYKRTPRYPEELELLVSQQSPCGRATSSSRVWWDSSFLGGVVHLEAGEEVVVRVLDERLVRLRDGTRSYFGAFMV

Chain of membrane LIGHT without residues 81-84 (EL4-NC-LIGHT cells) (O43557 other isoform, or with tags, fused parts or gaps): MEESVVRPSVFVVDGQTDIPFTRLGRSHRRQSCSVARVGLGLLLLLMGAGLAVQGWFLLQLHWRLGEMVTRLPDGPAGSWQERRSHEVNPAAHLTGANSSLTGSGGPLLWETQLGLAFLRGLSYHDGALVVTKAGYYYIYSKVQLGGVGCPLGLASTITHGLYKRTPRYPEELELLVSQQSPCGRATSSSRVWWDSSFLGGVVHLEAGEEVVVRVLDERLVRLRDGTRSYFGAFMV

B1: 3B04_var15 (antibody, human IgG4, V domains shown)
VH: QVQLVQSGAEVKKPGASVKVSCKASGYTFTDYEMHWVRQAPGQGLEWMGEIDPETGDTAYAQKFQGRVTLTADKSTSTAYMEFSSLRSEDTAVYYCSRETDYFFDYWGQGTLVTVSS
VL: DIQMTQSPSSLSASVGDRVTITCRASENIYGALNWYQQKPGKAPKLLIYGATNLAEGVPSRFSGSGSGRDYTLTISSLQPEDFATYYCQNVLTTPWTFGQGTKLEIKR
notes: human IgG4 (S241P, L248E, Kabat); also called 3B04 VL4VH3 (var15)
IC50, inhibition of IL-8 secretion from HT-29 cells (EL4-NC-LIGHT cells) [1]: 0.1 nM
EC50 [2]: 0.39 nM

B2: 3B04_var11 (antibody, human IgG4, V domains shown)
VH: B1 VH
VL: B1 VL with R24G, E56D
notes: human IgG4 (S241P, L248E, Kabat); also called 3B04 VL3VH3 (var11)
IC50, inhibition of IL-8 secretion from HT-29 cells (EL4-NC-LIGHT cells) [1]: 0.06 nM
EC50 [2]: 0.37 nM

B5: 3D12_var5 (antibody, human IgG4, V domains shown)
VH: B1 VH with G26D, Y32S, M34I, M48I, D57G, A61N, Q65K, V68A, F83L
VL: B1 VL with R24G, Q38R, P40Q, E56D, F83V, T93S
notes: human IgG4 (S241P, L248E, Kabat); also called 3D12 VL2VH1 (var5)
IC50, inhibition of IL-8 secretion from HT-29 cells (EL4-NC-LIGHT cells) [1]: 0.59 nM
EC50 [2]: 0.33 nM

B6: 3B04_var2 (antibody, human IgG4, V domains shown)
VH: B1 VH with M48I, A61S
VL: B1 VL with R24G, Q38R, P40Q, K45Q, E56D, P59S
notes: human IgG4 (S241P, L248E, Kabat); also called 3B04 VL1VH2 (var2)
IC50, inhibition of IL-8 secretion from HT-29 cells (EL4-NC-LIGHT cells) [1]: 0.06 nM
EC50 [2]: 0.38 nM

B7: 3D12_var12 (antibody, human IgG4, V domains shown)
VH: B1 VH with Y32S, D57G, F83L
VL: B1 VL with R24G, E56D, F83V, T93S
notes: human IgG4 (S241P, L248E, Kabat); also called 3D12 VL3VH4 (var12)
IC50, inhibition of IL-8 secretion from HT-29 cells (EL4-NC-LIGHT cells) [1]: 0.58 nM
EC50 [2]: 0.33 nM

B11: 3B04_var10 (antibody, human IgG4, V domains shown)
VH: B1 VH with M48I, A61S
VL: B1 VL with R24G, E56D
notes: human IgG4 (S241P, L248E, Kabat); also called 3B04 VL3VH2 (var10)
IC50, inhibition of IL-8 secretion from HT-29 cells (EL4-NC-LIGHT cells) [1]: 0.04 nM
EC50 [2]: 0.49 nM

B15: 3D12_var2 (antibody, human IgG4, V domains shown)
VH: B1 VH with G26D, Y32S, M34I, M48I, D57G, A61N, F83L
VL: B1 VL with R24G, Q38R, P40Q, K45Q, E56D, P59S, F83V, T93S
notes: human IgG4 (S241P, L248E, Kabat); also called 3D12 VL1VH2 (var2)
IC50, inhibition of IL-8 secretion from HT-29 cells (EL4-NC-LIGHT cells) [1]: 0.74 nM
EC50 [2]: 0.47 nM

These reach a lower EC50 [2]. Values come first.

IC50, inhibition of IL-8 secretion from HT-29 cells (EL4-NC-LIGHT cells) [1]: 0.04 nM
EC50 [2]: 0.32 nM
B4: 3B04_var13 (antibody, human IgG4, V domains shown)
VH: B1 VH with M48I, A61S, Q65K, V68A
VL: B1 VL
notes: human IgG4 (S241P, L248E, Kabat); also called 3B04 VL4VH1 (var13)

IC50, inhibition of IL-8 secretion from HT-29 cells (EL4-NC-LIGHT cells) [1]: 0.04 nM
EC50 [2]: 0.32 nM
B10: 3B04_var3 (antibody, human IgG4, V domains shown)
VH: B1 VH
VL: B1 VL with R24G, Q38R, P40Q, K45Q, E56D, P59S
notes: human IgG4 (S241P, L248E, Kabat); also called 3B04 VL1VH3 (var3)

IC50, inhibition of IL-8 secretion from HT-29 cells (EL4-NC-LIGHT cells) [1]: 0.05 nM
EC50 [2]: 0.3 nM
B13: 3B04_var14 (antibody, human IgG4, V domains shown)
VH: B1 VH with M48I, A61S
VL: B1 VL
notes: human IgG4 (S241P, L248E, Kabat); also called 3B04 VL4VH2 (var14)

IC50, inhibition of IL-8 secretion from HT-29 cells (EL4-NC-LIGHT cells) [1]: 0.08 nM
EC50 [2]: 0.27 nM
B14: 3B04_var6 (antibody, human IgG4, V domains shown)
VH: B1 VH with M48I, A61S
VL: B1 VL with R24G, Q38R, P40Q, E56D
notes: human IgG4 (S241P, L248E, Kabat); also called 3B04 VL2VH2 (var6)

IC50, inhibition of IL-8 secretion from HT-29 cells (EL4-NC-LIGHT cells) [1]: 0.04 nM
EC50 [2]: 0.27 nM
B16: 3B04_var5 (antibody, human IgG4, V domains shown)
VH: B1 VH with M48I, A61S, Q65K, V68A
VL: B1 VL with R24G, Q38R, P40Q, E56D
notes: human IgG4 (S241P, L248E, Kabat); also called 3B04 VL2VH1 (var5)

IC50, inhibition of IL-8 secretion from HT-29 cells (EL4-NC-LIGHT cells) [1]: 0.09 nM
EC50 [2]: 0.26 nM
B3: 3B04_var9 (antibody, human IgG4, V domains shown)
VH: B1 VH with M48I, A61S, Q65K, V68A
VL: B1 VL with R24G, E56D
notes: human IgG4 (S241P, L248E, Kabat); also called 3B04 VL3VH1 (var9)

IC50, inhibition of IL-8 secretion from HT-29 cells (EL4-NC-LIGHT cells) [1]: 0.52 nM
EC50 [2]: 0.26 nM
B17: 3D12_var16 (antibody, human IgG4, V domains shown)
VH: B1 VH with Y32S, D57G, F83L
VL: B1 VL with F83V, T93S
notes: human IgG4 (S241P, L248E, Kabat); also called 3D12 VL4VH4 (var16)

IC50, inhibition of IL-8 secretion from HT-29 cells (EL4-NC-LIGHT cells) [1]: 0.05 nM
EC50 [2]: 0.24 nM
B8: 3B04_var1 (antibody, human IgG4, V domains shown)
VH: B1 VH with M48I, A61S, Q65K, V68A
VL: B1 VL with R24G, Q38R, P40Q, K45Q, E56D, P59S
notes: human IgG4 (S241P, L248E, Kabat); also called 3B04 VL1VH1 (var1)

IC50, inhibition of IL-8 secretion from HT-29 cells (EL4-NC-LIGHT cells) [1]: 0.1 nM
EC50 [2]: 0.24 nM
B9: 3B04_var16 (antibody, human IgG4, V domains shown)
VH: B1 VH with F83L
VL: B1 VL
notes: human IgG4 (S241P, L248E, Kabat); also called 3B04 VL4VH4 (var16); 3B04 variant 16

IC50, inhibition of IL-8 secretion from HT-29 cells (EL4-NC-LIGHT cells) [1]: 0.38 nM
EC50 [2]: 0.22 nM
B12: 3D12_var15 (antibody, human IgG4, V domains shown)
VH: B1 VH with G26D, Y32S, M34I, D57G, F83L
VL: B1 VL with F83V, T93S
notes: human IgG4 (S241P, L248E, Kabat); also called 3D12 VL4VH3 (var15)
